First the molecules themselves.
B1: CPEB3 Ribozyme (parent)
chain: UAACAGGGGGCCACAGCAGAAGCGUUCACGUCGCAGCCCCUGUCAGAUUCUGGUGAAUCUGCGAAUUCUGCUGUAUAUCUC

This series covers variants of B1. The experiment in a line: self-cleavage, relative activity (ratio to wild type); higher = more cleavage; in vitro, sequencing. An outline of the steps: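 CPEB3 self-cleaving ribozyme mutant libraries were made by rounds of error-prone PCR, barcoded, and transcribed in vitro with T7 RNA polymerase for 5 hours at 37°C. Cleavage occurred during transcription and a 15 min DNase I step before EDTA stop. RNAs were reverse transcribed with template switching and Illumina-sequenced, with DNA sequencing mapping barcodes to variants. Relative activity is the variant's cleaved/total read fraction divided by wild type's (minimum 5 reads), averaged across three batches.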
U1A A77U: the self-cleavage is 1.05.

Consider U1A A77G, for which the self-cleavage worked out at 1.12.

As for A2C U49C, the self-cleavage came to 0.42.

U1C G24C: the self-cleavage came out at 0.31.

For the variant U1A U60C, the self-cleavage came out at 0.35.

Regarding U1A U60A, the self-cleavage is 0.56.

Consider U1C A5U, for which the self-cleavage turned out to be 1.02.

Consider U1C A5G, for which the self-cleavage amounted to 0.68.

Consider U1C A5C, for which the self-cleavage worked out at 0.82.

For the variant U1C G36C, the self-cleavage is 0.2.

On to U1C G36A, for which the self-cleavage is 0.21.

For U1A A21G, the self-cleavage was 0.55.

For the variant U1A A21C, the self-cleavage came to 0.28.

Regarding U1A A21U, the self-cleavage stood at 0.27.

Turning to U1A C38U, the self-cleavage worked out at 0.97.

With U1A C38G, the self-cleavage turned out to be 0.45.

Regarding U1A C38A, the self-cleavage amounted to 0.35.

On to U1C A15G, for which the self-cleavage amounted to 0.6.

Turning to U1C A15C, the self-cleavage was determined as 0.62.

Regarding U1C A15U, the self-cleavage came out at 0.55.

As for U1A C81U, the self-cleavage was 1.11.

Regarding U1C C11G, the self-cleavage turned out to be 0.43.

Take U1C C11U: the self-cleavage turned out to be 0.36.

Consider U1C C81G, for which the self-cleavage was found to be 1.21.

Turning to U1A U58A, the self-cleavage worked out at 0.29.

Turning to U1A U58C, the self-cleavage is 0.66.

As to U1C U67A, the self-cleavage amounted to 0.4.

U1C U67G: the self-cleavage stood at 0.22.

Consider U1C U67C, for which the self-cleavage worked out at 0.26.

Turning to A2C A5G, the self-cleavage came to 0.86.

With U1C G19U, the self-cleavage turned out to be 0.4.

On to U1C G19A, for which the self-cleavage was determined as 0.32.

Take U1A A13U: the self-cleavage came out at 1.16.

As for U1A A13G, the self-cleavage was 0.8.

For A2C G8A, the self-cleavage worked out at 0.1.

On to U1G C27A, for which the self-cleavage is 0.43.

As to U1C G6A, the self-cleavage stood at 0.3.

For the variant U1C G6C, the self-cleavage amounted to 0.56.

For U1C A45G, the self-cleavage was found to be 0.81.

In the case of U1C A45U, the self-cleavage came to 0.39.

For the variant U1C A45C, the self-cleavage stood at 0.16.

For the variant U1C U69A, the self-cleavage was found to be 0.44.

Take U1C U69C: the self-cleavage stood at 0.46.

For the variant U1A G9A, the self-cleavage was 0.28.

As for U1A G9C, the self-cleavage came to 0.1.

U1A U78A: the self-cleavage stood at 0.99.

As to U1A U78C, the self-cleavage stood at 0.91.

Turning to A2C U26C, the self-cleavage was 0.55.

In the case of A2C G36A, the self-cleavage came to 0.22.

U1C A2G: the self-cleavage stood at 0.8.

Regarding U1C A2U, the self-cleavage was 1.04.

In the case of U1C A2C, the self-cleavage is 0.94.

As for U1A C50A, the self-cleavage was found to be 0.47.

U1C G7C: the self-cleavage turned out to be 0.44.

U1C G7A: the self-cleavage was found to be 0.09.

Consider U1A A3G, for which the self-cleavage amounted to 1.1.

U1A A3C: the self-cleavage came to 1.09.

On to U1A A3U, for which the self-cleavage turned out to be 1.2.

Consider U1A G61C, for which the self-cleavage was found to be 0.29.

For U1C U41A, the self-cleavage amounted to 0.21.

On to U1C U41C, for which the self-cleavage came out at 0.87.

For U1C U41G, the self-cleavage worked out at 0.53.

U1C C34A: the self-cleavage was 0.12.

Take U1C C34U: the self-cleavage was 0.24.

Consider A2G A13U, for which the self-cleavage stood at 0.91.

On to A2G A13G, for which the self-cleavage was 0.59.

Consider A2C G52A, for which the self-cleavage was determined as 1.02.

Regarding U1C C68A, the self-cleavage stood at 0.37.

On to U1C C68G, for which the self-cleavage is 0.25.

For U1A A18G, the self-cleavage was 0.57.

As for U1A A18U, the self-cleavage was determined as 0.41.

On to U1A A18C, for which the self-cleavage stood at 0.53.

Regarding U1A U41A, the self-cleavage came to 0.2.

Consider U1A U41G, for which the self-cleavage amounted to 0.27.

For U1A U41C, the self-cleavage amounted to 0.89.

With A2C A64G, the self-cleavage is 0.74.

Regarding A2C A64U, the self-cleavage worked out at 0.21.

Regarding U1C G9C, the self-cleavage came out at 0.39.

In the case of U1C G9A, the self-cleavage was 0.43.

Take U1C C12U: the self-cleavage is 1.22.

Turning to U1A U80C, the self-cleavage is 1.14.

For U1A G24A, the self-cleavage was determined as 0.25.

Turning to U1A G30A, the self-cleavage is 0.11.

For the variant U1G U25C, the self-cleavage came to 0.13.

For U1C U80C, the self-cleavage was 1.

For U1C U80A, the self-cleavage worked out at 0.82.

In the case of U1C C37U, the self-cleavage stood at 0.37.

On to U1C C37A, for which the self-cleavage turned out to be 0.16.

Regarding U1A A64G, the self-cleavage was 0.84.

Consider U1A A64U, for which the self-cleavage was found to be 0.28.

Regarding A2C U80A, the self-cleavage stood at 1.2.

On to U1C G53A, for which the self-cleavage was found to be 0.98.

U1C G53U: the self-cleavage came to 0.72.

U1G A13G: the self-cleavage was found to be 0.66.

Turning to U1A G7A, the self-cleavage worked out at 0.1.

Take U1A G7U: the self-cleavage came out at 0.3.

As for U1G A20C, the self-cleavage is 0.55.

Consider A2C A13G, for which the self-cleavage amounted to 0.49.

Take U1A U72G: the self-cleavage stood at 0.75.

On to U1A U72C, for which the self-cleavage came to 1.02.

With U1A U72A, the self-cleavage came out at 0.55.

In the case of U1A A35G, the self-cleavage turned out to be 1.25.

With U1A A35U, the self-cleavage is 0.49.

U1C C40A: the self-cleavage stood at 0.18.

U1C C40U: the self-cleavage amounted to 0.3.

U1G U78C: the self-cleavage stood at 0.82.

Turning to U1A G46A, the self-cleavage was determined as 0.43.

Regarding U1A A20U, the self-cleavage was 0.32.

For the variant U1A A20G, the self-cleavage is 0.72.

Consider U1C U48A, for which the self-cleavage came to 0.16.

For U1C U48C, the self-cleavage came to 0.41.

Regarding U1G U74C, the self-cleavage was 1.13.

As to A2C A28G, the self-cleavage amounted to 0.51.

Consider A2C C39A, for which the self-cleavage stood at 0.49.

A2C U51G: the self-cleavage came to 0.92.

With A2C U51A, the self-cleavage stood at 0.7.

On to U1C G33A, for which the self-cleavage came out at 0.32.

In the case of U1C A13G, the self-cleavage turned out to be 0.79.

As to U1C A13U, the self-cleavage came to 1.13.

Consider U1A C68U, for which the self-cleavage was 0.82.

As for U1A C68A, the self-cleavage came to 0.41.

As to U1A A5G, the self-cleavage came to 0.68.

Turning to U1A A5U, the self-cleavage amounted to 0.97.

For the variant U1G U41C, the self-cleavage is 1.01.

On to U1G U41A, for which the self-cleavage was 0.3.

Regarding U1G G53C, the self-cleavage was determined as 0.89.

U1C U78C: the self-cleavage stood at 0.8.

For U1C U78A, the self-cleavage came out at 1.11.

With U1C U78G, the self-cleavage worked out at 0.94.

Take A2C U66C: the self-cleavage came out at 0.4.

Take U1A G16A: the self-cleavage amounted to 0.38.

Consider U1A U67C, for which the self-cleavage was determined as 0.18.

For the variant U1G G63U, the self-cleavage came out at 0.81.

For U1A U54C, the self-cleavage is 1.08.

In the case of U1A U54G, the self-cleavage is 0.76.

On to U1A U54A, for which the self-cleavage stood at 1.14.

As for U1C U26A, the self-cleavage amounted to 0.81.

Consider U1C U26C, for which the self-cleavage came out at 0.38.

Regarding U1A A28U, the self-cleavage is 0.88.

U1C A3U: the self-cleavage stood at 0.83.

U1C A3G: the self-cleavage turned out to be 0.9.

With U1G A2G, the self-cleavage stood at 0.95.

For U1G A15G, the self-cleavage worked out at 0.84.

As for A2C U58A, the self-cleavage worked out at 0.2.

As for U1C C38A, the self-cleavage worked out at 0.18.

In the case of U1A U43C, the self-cleavage came out at 0.58.

In the case of U1A U43A, the self-cleavage was 1.08.

Consider U1A U43G, for which the self-cleavage stood at 0.54.

In the case of U1A U69A, the self-cleavage came to 0.54.

With U1A U69C, the self-cleavage was 0.61.

Consider A2G A15G, for which the self-cleavage was found to be 0.53.

For A2G A15U, the self-cleavage was 0.41.

In the case of U1C U76C, the self-cleavage amounted to 0.8.

For U1C U76A, the self-cleavage amounted to 0.78.

For the variant U1A U31C, the self-cleavage amounted to 0.65.

Consider U1A U31A, for which the self-cleavage worked out at 0.64.

As to U1C U49C, the self-cleavage was found to be 0.37.

Turning to U1C U49A, the self-cleavage is 0.61.

With U1C A47U, the self-cleavage came out at 0.47.

With U1C A47G, the self-cleavage came to 0.9.

U1C U66C: the self-cleavage was 0.39.

Turning to U1C A64G, the self-cleavage is 0.8.

For the variant U1C A64U, the self-cleavage is 0.26.

On to U1A A47U, for which the self-cleavage came to 0.78.

For the variant U1A A47G, the self-cleavage came to 1.01.

For the variant A2C U72A, the self-cleavage was 0.72.

For the variant A2C U72C, the self-cleavage was determined as 0.9.

Values taken from the RNAGym collection of RNA variant scans (doi:10.1093/nar/gkz1192).
